Laboratory results from patent US20210238282A1 (AMPSOURCE BIOPHARMA SHANGHAI, published 2021).

T1: human TIM-1 (Sino Biological Inc., catalog No. 11051-H08H1) (human, UniProt Q96D42 21-290)
T1 construct: Bought protein
T1 sequence (looked up): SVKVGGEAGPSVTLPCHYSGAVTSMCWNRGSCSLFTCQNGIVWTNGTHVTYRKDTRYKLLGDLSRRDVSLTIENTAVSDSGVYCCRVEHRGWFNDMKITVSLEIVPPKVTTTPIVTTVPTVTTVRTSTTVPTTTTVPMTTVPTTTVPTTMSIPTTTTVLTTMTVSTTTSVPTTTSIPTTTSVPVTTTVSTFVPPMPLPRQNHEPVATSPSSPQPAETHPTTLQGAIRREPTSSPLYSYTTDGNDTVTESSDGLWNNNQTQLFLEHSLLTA

T2: human TIM-4 (Sino Biological Inc., catalog No. 12161-H08H) (human, UniProt Q96H15 25-315)
T2 construct: Bought protein
T2 sequence (looked up): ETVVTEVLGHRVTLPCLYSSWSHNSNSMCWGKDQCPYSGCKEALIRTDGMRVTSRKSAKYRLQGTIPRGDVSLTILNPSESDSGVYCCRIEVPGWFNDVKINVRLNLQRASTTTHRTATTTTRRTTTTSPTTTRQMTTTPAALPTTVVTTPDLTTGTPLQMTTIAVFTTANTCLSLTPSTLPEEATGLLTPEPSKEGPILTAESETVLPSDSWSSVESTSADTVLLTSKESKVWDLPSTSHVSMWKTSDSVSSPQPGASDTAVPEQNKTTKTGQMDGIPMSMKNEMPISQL


Columns and labels:
[1] = biological target: T3, human TIM-3 antigen (His-tagged TIM-3 extracellular domain expressed by Ampsource Biopharma Shanghai Inc.) (human, UniProt Q8TDQ0 22-202); test: BLI (ForteBio Octet) as stated; antigen in solution, 1:1 model; capture of the murine antibody not described
T3 construct: extracellular domain; also called TIM-3-His; not shown: His tag

[2] = biological target: T3, human TIM-3 antigen (His-tagged TIM-3 …); test: ELISA, plate coated with His-tagged human TIM-3 ECD, goat anti-mouse IgG-HRP
[3] = biological target: T3, human TIM-3 antigen (His-tagged TIM-3 …); test: ELISA, plate coated with His-tagged human TIM-3 extracellular domain
[4] = biological target: T1, human TIM-1 (Sino Biological Inc., …); test: ELISA, plate coated with human TIM-1 at 1 ug/mL, detection with HRP-labeled goat anti-human IgG
[5] = biological target: T3, human TIM-3 antigen (His-tagged TIM-3 …); test: BLI (ForteBio Octet) as stated; antibody captured by anti-human IgG Fc, antigen in solution, 1:1 model
[6] = biological target: T4, TIM3-Euk (TIM-3 reagent of the TIM-3/Gal9 binding assay kit) (UniProt Q8TDQ0 22-200, limits assumed, europium cryptate label (Euk), position not stated); test: HTRF competition, blocking of TIM-3/Galectin-9 binding (competitor: Tag-Gal9)
T4 construct: Kit reagent

[7] = biological target: T2, human TIM-4 (Sino Biological Inc., …); test: ELISA, plate coated with human TIM-4 at 1 ug/mL, detection with HRP-labeled goat anti-human IgG
[8] = biological target: T3, human TIM-3 antigen (His-tagged TIM-3 …); test: direct ELISA with HRP-labeled AB12S3, plate coated with human TIM-3 at 1 ug/mL
[9] = biological target: monkey TIM-3 (Sino Biological Inc., catalog No. 90312-C02H) (monkey); test: direct ELISA with HRP-labeled AB12S3, plate coated with monkey TIM-3 at 1 ug/mL
[10] = biological target: TIM-3 (His-tagged, used in the TIM-3/PtdSer competitive ELISA) (UniProt Q8TDQ0 22-200, limits assumed); test: competitive ELISA, plate coated with PtdSer (phosphatidylserine, not a protein), His-tagged TIM-3 in solution with antibody, anti-6xHis-HRP
[11] = biological target: T5, mouse TIM-3 protein (Sino Biological Inc., catalog No. 51152-M08H) (mouse, UniProt Q8VIM0 20-191); test: direct ELISA with HRP-labeled AB12S3, plate coated with mouse TIM-3 at 1 ug/mL
T5 construct: Bought protein; also called murine TIM-3

Row | Binder | EC50 (read off the curve) [3] | Kd [5] | koff [5] | kon [5] | further results
1 | murine monoclonal antibody Mab22 (antibody, mouse IgG1, V domains shown, subtype identified as murine IgG1 (Kappa); purified from hybridoma supernatant on protein G; also called antibody secreted by hybridoma clone #22; murine antibody Mab22) VH: EVQLQLSGPELVKPGASVKMSCKASGYTFTNYVMHWMRQKPGQGLEWIGYIDPDNDGIKYNEKIKGKATLTSDKSSSTAYMELSSLTSEDSAVYYCARDFGYVDWFPYWGQGTLVTVSA VL: DIVMTQSHKFMSTSVGNRVSITCKASQDVTTAVAWYQQKSGQSPKLLIYSASNRYIGVPDRFTGSGSGTDFTFTISSVQTEDLAVYYCQQHYSIPPTFGGGTNLEIK | – | – | – | – | Kd [1]: < 1 pM; koff [1]: < 1e-07 s⁻¹; kon [1]: 345000 M⁻¹ s⁻¹; EC50 [2]: 0.0063 µg/mL
2 | humanized anti-TIM-3 antibody AB12S3 (antibody, human IgG4 S228P, kappa, V domains shown, Human IgG4 S228P (EU) heavy chain and human kappa light chain) VH: EVQLVQSGAEVKKPGASVKVSCKASGYTFTNYVMHWMRQAPGQRLEWIGYIDPDNDGIKYNEKIKGKATLTSDKSSSTAYMELSSLRSEDTAVYYCARDFGYVDWFPYWGQGTTVTVSS VL: DIVMTQSPSSLSASVGDRVTITCKASQDVTTAVAWYQQKPGKAPKLLIYSASNRYIGVPDRFTGSGSGTDFTFTISSLQPEDIATYYCQQHYSIPPTFGGGTKVEIKR | ~0.004 µg/mL | 2.71 pM | – | – | binding result [4]: no binding (tested: 10000 ng/mL); IC50 [6]: 0.202 µg/mL; binding result [7]: no binding (tested: 10000 ng/mL); EC50 (read off the curve) [8]: ~0.008 µg/mL; EC50 (read off the curve) [9]: 0.05 µg/mL; IC50 [10]: 1.33 µg/mL; binding result [11]: no binding (tested: 10000 ng/mL)
3 | control antibody AB12S1 (antibody, human IgG1, kappa, N297A, V domains shown, Variable regions derived from anti-TIM-3 antibody ABTIM3 of U.S. Pat. No. 9,605,070; also called positive control antibody AB12S1) VH: QVQLQQPGAELVKPGASVKMSCKASGYTFTSYNMHWIKQTPGQGLEWIGDIYPGNGDTSYNQKFKGKATLTADKSSSTVYMQLSSLTSEDSAVYYCARVGGAFPMDYWGQGTSVTVSS VL: DIVLTQSPASLAVSLGQRATISCRASESVEYYGTSLMQWYQQKPGQPPKLLIYAASNVESGVPARFSGSGSGTDFSLNIHPVEEDDIAIYFCQQSRKDPSTFGGGTKLEIKR | ~0.003 µg/mL | – | – | – | IC50 [6]: 0.259 µg/mL; IC50 [10]: 3.2 µg/mL
4 | humanized anti-TIM-3 antibody AB12S6 (antibody, V domains shown) VH: QVQLQLSGAEVKKPGASVKVSCKASGYTFTNYVMHWVRQAPGQRLEWMGWIDPDNDGIKYSQKFQGRVTLTSDKSASTAYMELSSLRSEDTAVYYCARDFGYVDWFPYWGQGTLVTVSS VL: DIQMTQSPSSMSASVGDRVTITCQASQDVTTALNWYQQKPGKSPKLLIYSASNLETGVPSRFSGSGSGTDFTFTISSLQPEDIATYYCQQHYSIPPTFGGGTNLEIK | – | 4.38 pM | 8.68e-07 s⁻¹ | 198000 M⁻¹ s⁻¹ | –

Further lines, with some results ahead:

Row | EC50 (read off the curve) [3] | Kd [5] | koff [5] | kon [5] | Binder | further results
5 | ~0.004 µg/mL | < 1 pM | < 1e-07 s⁻¹ | 254000 M⁻¹ s⁻¹ | humanized anti-TIM-3 antibody AB12S4 (antibody, human IgG4 S228P, kappa, V domains shown, Human IgG4 S228P (EU) heavy chain and human kappa light chain) VH: EVQLVLSGAEVVKPGASVKMSCKASGYTFTNYVMHWMRQKPGQRLEWIGYIDPDNDGIKYNEKIKGKATLTSDKSSSTAYMELSSLRSEDSAVYYCARDFGYVDWFPYWGQGTTVTVSS VL: DIVMTQSPSSMSTSVGDRVTITCKASQDVTTAVAWYQQKPGKSPKLLIYSASNRYIGVPDRFTGSGSGTDFTFTISSVQPEDIAVYYCQQHYSIPPTFGGGTNLEIKR | –
6 | – | 4.82 pM | 6.32e-07 s⁻¹ | 131000 M⁻¹ s⁻¹ | humanized anti-TIM-3 antibody AB12S5 (antibody, V domains shown, it was captured through anti-human IgG Fc) VH: QVQLVQSGAEVKKPGASVKVSCKASGYTFTNYVMHWVRQAPGQRLEWMGWIDPDNDGIKYSQKFQGRVTITRDTSASTAYMELSSLRSEDTAVYYCARDFGYVDWFPYWGQGTTVTVSS VL: DIQMTQSPSSLSASVGDRVTITCQASQDVTTALNWYQQKPGKAPKLLIYSASNLETGVPSRFSGSGSGTDFTFTISSLQPEDIATYYCQQHYSIPPTFGGGTKVEIK | –
7 | – | 3.44 pM | 7.66e-07 s⁻¹ | 223000 M⁻¹ s⁻¹ | humanized anti-TIM-3 antibody AB12S7 (antibody, V domains shown) VH: EVQLQLSGAEVKKPGASVKVSCKASGYTFTNYVMHWMRQKPGQRLEWMGWIDPDNDGIKYSQKFQGRVTITRDKSSSTAYMELSSLRSEDTAVYYCARDFGYVDWFPYWGQGTLVTVSS VL: DIVMTQSPSSLSASVGDRVTITCQASQDVTTALNWYQQKSGQSPKLLIYSASNLETGVPSRFSGSGSGTDFTFTISSLQPEDIATYYCQQHYSIPPTFGGGTNLEIK | –
